Laboratory results taken from US20150086555A1.
“And” between values parts separate entries of the source, which are not always exact repeats. Identical values can stand only once. Like-named read-outs stand apart in the source and are kept apart here.

Key:
Conditions in all cases: remark: other sources report otherwise
[1] = molecular target: T1, recombinant soluble homotrimeric HA of A/Anhui/1/05 (H5N1) (Influenza A virus A/Anhui/1/2005(H5N1))
[2] = molecular target: recombinant soluble homotrimeric HA of A/Vietnam/1203/04 (H5N1) (Influenza A virus A/VietNam/1203/2004(H5N1))
[3] = molecular target: recombinant soluble homotrimeric HA of A/Hong Kong/1073/99 (H9N2) (Influenza A virus A/Hong Kong/1073/99 (H9N2))
[4] = molecular target: recombinant soluble homotrimeric HA of A/Solomon Islands/3/06 (H1N1) (Influenza A virus A/Solomon Islands/3/2006(H1N1))
[5] = molecular target: T2, recombinant soluble homotrimeric HA of A/Hong Kong/2108/03 (H9N2) (Influenza A virus A/HK/2108/2003(H9N2))
[6] = molecular target: recombinant soluble homotrimeric HA of A/swine/Ontario/01911-2/99 (H4N6) (Influenza A virus A/Swine/Ontario/01911-2/99 (H4N6))
[7] = molecular target: T3, recombinant soluble homotrimeric HA of A/Indonesia/5/05 (H5N1) (Influenza A virus A/Indonesia/5/2005(H5N1))
[8] = molecular target: T4, recombinant soluble homotrimeric HA of A/South Carolina/1/18 (H1N1) (Influenza A virus A/South Carolina/1/18 (H1N1))
[9] = molecular target: recombinant soluble homotrimeric HA of A/Japan/305/57 (H2N2) (Influenza A virus A/Japan/305/1957(H2N2))
[10] = molecular target: T5, recombinant soluble homotrimeric HA of A/Netherlands/219/03 (H7N7) (Influenza A virus A/Netherlands/219/03(H7N7))
[11] = molecular target: T6, recombinant soluble homotrimeric HA of A/duck/Yangzhou/02/05 (H8N4) (Influenza A virus A/duck/Yangzhou/02/2005(H8N4))
[12] = molecular target: T7, recombinant soluble homotrimeric HA of A/northern shoveler/California/HKWF115/07 (H6) (Influenza A virus A/northern shoveler/California/HKWF115/2007(H6N1))
[13] = molecular target: T8, recombinant soluble homotrimeric HA of A/California/4/09 (H1N1) (Influenza A virus A/California/04/2009(H1N1))
[14] = molecular target: recombinant soluble homotrimeric HA of A/Hong Kong/156/97 (H5N1) (Influenza A virus A/Hong Kong/156/97 (H5N1))
[15] = molecular target: T9, recombinant soluble homotrimeric HA of A/Egypt/3300-NAMRU3/08 (H5N1) (Influenza A virus A/Egypt/3300-NAMRU3/2008(H5N1))
[16] = molecular target: recombinant soluble homotrimeric HA of A/chicken/Vietnam/NCVD-016/08 (H5N1) (Influenza A virus A/chicken/Vietnam/NCVD-016/2008(H5N1))
[17] = molecular target: recombinant soluble homotrimeric HA of H1N1 A/California/04/09 (Influenza A virus A/California/04/2009(H1N1)); test: ProteOn biosensor, HA-CA captured on anti-V5 surface, Fab in solution
[18] = molecular target: recombinant homotrimeric HA A/duck/Yangzhou/02/05 H8N4 (Influenza A virus A/duck/Yangzhou/02/2005(H8N4)); test: protein microarray, purified IgG, trimeric HA
[19] = molecular target: recombinant homotrimeric HA A/Wisconsin/67/05 H3N2 (Influenza A virus A/Wisconsin/67/2005(H3N2)); test: protein microarray, purified IgG, trimeric HA
[20] = molecular target: recombinant homotrimeric HA A/Vietnam/1203/04 H5N1 (Influenza A virus A/VietNam/1203/2004(H5N1)); test: protein microarray, purified IgG, trimeric HA
[21] = molecular target: recombinant homotrimeric HA A/Japan/305/57 H2N2 (Influenza A virus A/Japan/305/1957(H2N2)); test: protein microarray, purified IgG, trimeric HA
[22] = molecular target: recombinant homotrimeric HA A/Anhui/1/05 H5N1 (Influenza A virus A/Anhui/1/2005(H5N1)); test: protein microarray, purified IgG, trimeric HA
[23] = molecular target: recombinant homotrimeric HA A/South Carolina/1/18 H1N1 (Influenza A virus A/South Carolina/1/18 (H1N1)); test: protein microarray, purified IgG, trimeric HA
[24] = molecular target: recombinant homotrimeric HA A/Egypt/3300-NAMRU3/08 H5N1 (Influenza A virus A/Egypt/3300-NAMRU3/2008(H5N1)); test: protein microarray, purified IgG, trimeric HA
[25] = molecular target: recombinant homotrimeric HA A/Indonesia/5/05 H5N1 (Influenza A virus A/Indonesia/5/2005(H5N1)); test: protein microarray, purified IgG, trimeric HA
[26] = molecular target: recombinant homotrimeric HA A/Hong Kong/156/97 H5N1 (Influenza A virus A/Hong Kong/156/97 (H5N1)); test: protein microarray, purified IgG, trimeric HA
[27] = molecular target: recombinant homotrimeric HA A/northern shoveler/California/HKWF115/07 H6N4 (Influenza A virus A/northern shoveler/California/HKWF115/2007(H6N1)); test: protein microarray, purified IgG, trimeric HA
[28] = molecular target: recombinant homotrimeric HA A/swine/Ontario/01911-2/99 H4N6 (Influenza A virus A/Swine/Ontario/01911-2/99 (H4N6)); test: protein microarray, purified IgG, trimeric HA
[29] = molecular target: recombinant homotrimeric HA A/chicken/Vietnam/NCVD-016/08 H5N1 (Influenza A virus A/chicken/Vietnam/NCVD-016/2008(H5N1)); test: protein microarray, purified IgG, trimeric HA
[30] = molecular target: recombinant homotrimeric HA A/Netherlands/219/03 H7N7 (Influenza A virus A/Netherlands/219/03(H7N7)); test: protein microarray, purified IgG, trimeric HA
[31] = molecular target: T1, recombinant soluble homotrimeric HA of …; test: trimeric HA microarray, transfection supernatant set 3
[32] = molecular target: T10, recombinant soluble homotrimeric HA of A/Wisconsin/67/05 (H3N2) (Influenza A virus A/Wisconsin/67/2005(H3N2)); test: as above
[33] = molecular target: T2, recombinant soluble homotrimeric HA of …; test: as above
[34] = molecular target: T3, recombinant soluble homotrimeric HA of …; test: as above
[35] = molecular target: T4, recombinant soluble homotrimeric HA of …; test: as above
[36] = molecular target: T5, recombinant soluble homotrimeric HA of …; test: as above
[37] = molecular target: T6, recombinant soluble homotrimeric HA of …; test: as above
[38] = molecular target: T8, recombinant soluble homotrimeric HA of …; test: as above
[39] = molecular target: T9, recombinant soluble homotrimeric HA of …; test: as above
[40] = molecular target: T1, recombinant soluble homotrimeric HA of …; test: HA microarray, BCC supernatant
[41] = molecular target: T10, recombinant soluble homotrimeric HA of …; test: HA microarray, BCC supernatant
[42] = molecular target: T6, recombinant soluble homotrimeric HA of …; test: HA microarray, BCC supernatant
[43] = molecular target: T7, recombinant soluble homotrimeric HA of …; test: HA microarray, BCC supernatant

B1: TCN-564 (5256_A17b) (antibody, V domains shown)
VH: QVQLVQSGADVKKPGSSVTVSCKASGGSFSNYGINWVRQAPGQGLEWMGGIIPLINAPNYAPKFQGRVTITADMFSNIVSLQLTSLRTDDTAVYYCARRKMTTAIDYWGQGTLVTVSS
VL: QPVLSQPPSASASLGASVTLTCTLSSGFDNYQVAWYQQRPGKGPRFVMRVGNGGNVASKGDGIPDRFSVSGSGLNRYLTIKNIQEDDESDYYCGADHGSGNNFVSPYVFGGGTKLTVL
Trimeric HA Binding: RLU [1]: 4260 RLU | Trimeric HA Binding: RLU [2]: 25400 RLU | Trimeric HA Binding: RLU [3]: 9470 RLU | Trimeric HA Binding: RLU [4]: 8570 RLU | Trimeric HA Binding: RLU [5]: 272 RLU | Trimeric HA Binding: RLU [6]: 251 RLU | Trimeric HA Binding: RLU [7]: 26300 RLU | Trimeric HA Binding: RLU [8]: 15100 RLU | Trimeric HA Binding: RLU [9]: 20200 RLU | Trimeric HA Binding: RLU [10]: 1410 RLU | Trimeric HA Binding: RLU [11]: 369 RLU | Trimeric HA Binding: RLU [12]: 16000 RLU | Trimeric HA Binding: RLU [13]: 27500 RLU | Trimeric HA Binding: RLU [14]: 18100 RLU | Trimeric HA Binding: RLU [15]: 19900 RLU | Trimeric HA Binding: RLU [16]: 5860 RLU

B2: Fab fragment of TCN-522 (Fab, V domains shown)
VH: QVQLQQWGAGLLKPSETLSLTCTVSGGSLTDYSWNWIRQPPGKGLEWIGDTLHNGYTNYNPSLRGRVSISIDTSKNQVSLRLTSVTAADTALYYCARGSGGYGGFDYFGKLRTWDFWGQGTLVTVSS
VL: DIQLTQSPSSLSASVGDRVTITCRASQGIRNDLGWYQQKPGNAPKRLIFGASSLQSGVPSRFSGSGSGTEFTLTISSLQPEDFATYYCLQHNSYPYTFGQGTKLEIK
fold slower on-rate (ka) than the other Fabs [17]: 5 fold and 8 fold

B3: TCN-531 (5091_H13) (antibody, V domains shown)
VH: EVQLVESGGDLVQPGRSLKLSCTGSGFTFGDYGVTWVRQAPGKGLEWVGFIRTRPWGGTADTAASVKGRFTISRDDSKSLAYLQMNSLKTEDTAVYYCCRDAPPNVEVASMTNWYFDLWGRGTLVTVSS
VL: DIQLTQSPSSLSASVGDRVTITCRASQGILNCLAWYQQKPGKVPNLLMYAASTLQSGVPSRFSGSGFGTDFTLTISSLQPEDVATYYCQTYGGVSTFGGGTKVEIR
Trimeric HA Binding: RLU [18]: 112 RLU | Trimeric HA Binding: RLU [19]: 20600 RLU | Trimeric HA Binding: RLU [20]: 488 RLU | Trimeric HA Binding: RLU [21]: 441 RLU | Trimeric HA Binding: RLU [22]: 4960 RLU | Trimeric HA Binding: RLU [23]: 56 RLU | Trimeric HA Binding: RLU [24]: 2810 RLU | Trimeric HA Binding: RLU [25]: 84 RLU | Trimeric HA Binding: RLU [26]: 259 RLU | Trimeric HA Binding: RLU [27]: 45 RLU | Trimeric HA Binding: RLU [28]: 84 RLU | Trimeric HA Binding: RLU [29]: 124 RLU | Trimeric HA Binding: RLU [30]: 170 RLU | Trimeric HA Binding: RLU [31]: 76 RLU | Trimeric HA Binding: RLU [32]: 4160 RLU | Trimeric HA Binding: RLU [33]: 158 RLU | Trimeric HA Binding: RLU [34]: 54 RLU | Trimeric HA Binding: RLU [35]: 1560 RLU | Trimeric HA Binding: RLU [36]: 384 RLU | Trimeric HA Binding: RLU [37]: 3220 RLU | Trimeric HA Binding: RLU [38]: 2830 RLU | Trimeric HA Binding: RLU [39]: 363 RLU | Trimeric HA Binding: RLU [40]: 3610 RLU | Trimeric HA Binding: RLU [41]: 7090 RLU | Trimeric HA Binding: RLU [42]: 3120 RLU | Trimeric HA Binding: RLU [43]: 43900 RLU
